Data reported in patent publication US9145571B2, “Preparation method of human metabolites of simvastatin or lovastatin using bacterial cytochrome P450 and composition therefor” (priority 2009, dated 2015).
“And” between values parts separate entries of the source, which are not always exact repeats. Equal values may be shown once.

B1: BM3 WT: wild-type bacterial cytochrome P450 BM3 (CYP102A1), Seq ID No. 16 (protein, listed as Bacillus megaterium)
chain: TIKEMPQPKTFGELKNLPLLNTDKPVQALMKIADELGEIFKFEAPGRVTRYLSSQRLIKEACDESRFDKNLSQALKFVRDFAGDGLFTSWTHEKNWKKAHNILLPSFSQQAMKGYHAMMVDIAVQLVQKWERLNADEHIEVPEDMTRLTLDTIGLCGFNYRFNSFYRDQPHPFITSMVRALDEAMNKLQRANPDDPAYDENKRQFQEDIKVMNDLVDKIIADRKASGEQSDDLLTHMLNGKDPETGEPLDDENIRYQIITFLIAGHETTSGLLSFALYFLVKNPHVLQKAAEEAARVLVDPVPSYKQVKQLKYVGMVLNEALRLWPTAPAFSLYAKEDTVLGGEYPLEKGDELMVLIPQLHRDKTIWGDDVEEFRPERFENPSAIPQHAFKPFGNGQRACIGQQFALHEATLVLGMMLKHFDFEDHTNYELDIKETLTLKPEGFVVKAKSKKIPLGGIPSPSTEQSAKKVRKKAENAHNTPLLVLYGSNMGTAEGTARDLADIAMSKGFAPQVATLDSHAGNLPREGAVLIVTASYNGHPPDNAKQFVDWLDQASADEVKGVRYSVFGCGDKNWATTYQKVPAFIDETLAAKGAENIADRGEADASDDFEGTYEEWREHMWSDVAAYFNLDIENSEDNKSTLSLQFVDSAADMPLAKMHGAFSTNVVASKELQQPGSARSTRHLEIELPKEASYQEGDHLGVIPRNYEGIVNRVTARFGLDASQQIRLEAEEEKLAHLPLAKTVSVEELLQYVELQDPVTRTQLRAMAAKTVCPPHKVELEALLEKQAYKEQVLAKRLTMLELLEKYPACEMKFSEFIALLPSIRPRYYSISSSPRVDEKQASITVSVVSGEAWSGYGEYKGIASNYLAELQEGDTITCFISTPQSEFTLPKDPETPLIMVGPGTGVAPFRGFVQARKQLKEQGQSLGEAHLYFGCRSPHEDYLYQEELENAQSEGIITLHTAFSRMPNQPKTYVQHVMEQDGKKLIELLDQGAHFYICGDGSQMAPAVEATLMKSYADVHQVSEADARLWLQQLEEKGRYAKDVWAG

What was measured:
CYP102A1 mutant #16 = biological target: T1, CYP102A1 mutant #16 (Priestia megaterium, UniProt P14779, E144G/E268V/F82I/F88V/L189Q/R48L); format: biochemical, Bacillus megaterium; conditions: 50 μM αNF
T1 construct: made in house; host or cells: Escherichia coli DH5αF′-IQ (soluble cytosolic fraction)
Procedure: (§1) Reaction mixtures consists of 50 pmol P450, 100 mM potassium phosphate buffer (pH 7.4), a NADPH-generating system, and a substrate (100 μM of simvastatin or lovastatin) in the presence of αNF (2 to 50 μM).
(§2) Products were analyzed by HPLC, as described above. In the case of human CYP3A4 activity assay, a control experiment of 50 pmol P450, 100 pmol NADPH-P450 reductase (CPR), 100 pmol cytocrhome b5, and 45 μM DLPC was used instead of 50 pmol CYP102A1.

CYP102A1 mutant #17 = biological target: T2, CYP102A1 mutant #17 (Priestia megaterium, UniProt P14779, E144G/E268V/E65G/F82I/F88V/L189Q/R48L); format: biochemical, Bacillus megaterium; conditions: 50 μM αNF
T2 construct: made in house; host or cells: Escherichia coli DH5αF′-IQ (soluble cytosolic fraction)
Procedure: as §1, §2

[1] = biological target: triple CYP102A1 mutant of R47L/F87V/L188Q (Priestia megaterium, UniProt P14779, F88V/L189Q/R48L); conditions: cited from earlier work
[2] = Oxidation of simvastatin by CYP102A1 wild type/mutants and human CYP3A4, product formation rate (turnover number); format: biochemical; conditions: 100 μM simvastatin; mean±SD of triplicate; N.D. = less than 0.001
Procedure: (§3) It was examined whether CYP102A1 and mutants thereof can oxidize simvastatin and lovastatin. Typical steady-state reactions for the oxidation of simvastatin and lovastatin included 50 pmol CYP102A1 in 0.25 ml of 100 mM potassium phosphate buffer (pH 7.4) along with a specified amount of substrate. To determine the kinetic parameters of several CYP102A1 mutants, 2 to 200 μM of statins were used. An aliquot of a NADPH-generating system was used to initiate reactions (final concentrations: 10 mM glucose 6-phosphate, 0.5 mM NADP+, and 1 IU yeast […]). A stock solution of statins (20 mM) was prepared in DMSO and diluted into the enzyme reactions with a final organic solvent concentration of <1% (v/v).
(§4) In the case of human CYP3A4 activity assay, a control experiment of 50 pmol P450, 100 pmol NADPH-P450 reductase (CPR), 100 pmol cytocrhome b5, and 45 μM L-α-dilauroyl-sn-glycero-3-phosphocholine (DLPC) was used instead of 50 pmol CYP102A1. After the solution was incubated for 30 minutes at 37° C., the reaction was terminated with 2-fold of ice-cold dichloromethane.
(§5) After centrifugation of the reaction mixture, the supernatant was carefully removed and the solvent was evaporated under N2 gas as described in Vickers et al., 1990. The products were analyzed by HPLC using a Gemini C18 column (4.6 mm×150 mm, 5 μm, Phenomenex, Torrance, Calif.) with a mobile phase of acetonitrile/water (70/30, v/v) containing 2.5 mM formic acid. Eluates were detected by UV at 238 nm.
(§6) First, the ability of wild-type and a set of P450 BM3 mutants to oxidize simvastatin and lovastatin was measured at a fixed substrate concentration (100 μM). While simvastatin and lovastatin are known to produce at least four and three metabolites, respectively, CYP102A1 mutants produced only two metabolites, one major (6β-OH statin) and one minor (6′-exomethylene statin) metabolites. The metabolites were analyzed by HPLC and compared to those of human CYP3A4 (FIGS. 1 and 2). Since there is no need to comprise a separate step of the 6′β-OH statin and 6′-exomethylene statin from other products, the use of wild-type and mutant CYP102A1 is beneficial.
(§7) Assays were performed using 100 μM simvastatin or lovastatin. Values are the mean±SD of triplicate determinations.

[3] = Oxidation of lovastatin by CYP102A1 wild type/mutants and human CYP3A4, product formation rate (turnover number); format: biochemical; conditions: 100 μM lovastatin; mean±SD of triplicate; N.D. = less than 0.001
Procedure: as §3, §4, §5, §6, §7

[4] = Total turnover numbers of 6′β-OH product formation, simvastatin; format: biochemical; conditions: total 1.0 mM statin, 37° C., 4 hours
Procedure: (§8) In order to measure the total turnover numbers (TTNs; mol product/mol catalyst) of mutant CYP102A1, total 1.0 mM statin was used. The reaction was initiated by the addition of the NADPH-generating system in the presence of 500 μM substrate and incubated at 37° C. for 4 hours. After 2 hours of incubation, the 500 μM substrate was added to the reaction mixture. The formation rate of simvastatin metabolites was determined by HPLC chromatograms.

[5] = Total turnover numbers of 6′β-OH product formation, lovastatin; format: biochemical; conditions: total 1.0 mM statin, 37° C., 4 hours
Procedure: as §8, with “The formation rate of simvastatin metabolites was determined by HPLC chromatograms.” left out

[6] = Kinetic parameters of 6′β-hydroxylation of simvastatin; format: biochemical; conditions: 2 to 200 μM statin
Procedure: (§9) The 6′β-hydroxylation rates of simvastatin (A) and lovastatin (B) were measured in reaction mixtures consistingof 50 pmol CYP102A1 in 0.25 ml of 100 mM potassium phosphate buffer (pH 7.4) along with a specified amount of substrate (2 to 200 μM of statins)
as §3
(§10) The kinetic parameters (Km and kcat) were determined using nonlinear regression analysis with GraphPad PRISM software (GraphPad, San Diego, Calif.). […]

[7] = Kinetic parameters of 6′β-hydroxylation of lovastatin; format: biochemical; conditions: 2 to 200 μM statin
Procedure: as §9, §3, §10

T2 sequence (P14779 2-1049 R48L/E65G/F82I/F88V/E144G/L189Q/E268V): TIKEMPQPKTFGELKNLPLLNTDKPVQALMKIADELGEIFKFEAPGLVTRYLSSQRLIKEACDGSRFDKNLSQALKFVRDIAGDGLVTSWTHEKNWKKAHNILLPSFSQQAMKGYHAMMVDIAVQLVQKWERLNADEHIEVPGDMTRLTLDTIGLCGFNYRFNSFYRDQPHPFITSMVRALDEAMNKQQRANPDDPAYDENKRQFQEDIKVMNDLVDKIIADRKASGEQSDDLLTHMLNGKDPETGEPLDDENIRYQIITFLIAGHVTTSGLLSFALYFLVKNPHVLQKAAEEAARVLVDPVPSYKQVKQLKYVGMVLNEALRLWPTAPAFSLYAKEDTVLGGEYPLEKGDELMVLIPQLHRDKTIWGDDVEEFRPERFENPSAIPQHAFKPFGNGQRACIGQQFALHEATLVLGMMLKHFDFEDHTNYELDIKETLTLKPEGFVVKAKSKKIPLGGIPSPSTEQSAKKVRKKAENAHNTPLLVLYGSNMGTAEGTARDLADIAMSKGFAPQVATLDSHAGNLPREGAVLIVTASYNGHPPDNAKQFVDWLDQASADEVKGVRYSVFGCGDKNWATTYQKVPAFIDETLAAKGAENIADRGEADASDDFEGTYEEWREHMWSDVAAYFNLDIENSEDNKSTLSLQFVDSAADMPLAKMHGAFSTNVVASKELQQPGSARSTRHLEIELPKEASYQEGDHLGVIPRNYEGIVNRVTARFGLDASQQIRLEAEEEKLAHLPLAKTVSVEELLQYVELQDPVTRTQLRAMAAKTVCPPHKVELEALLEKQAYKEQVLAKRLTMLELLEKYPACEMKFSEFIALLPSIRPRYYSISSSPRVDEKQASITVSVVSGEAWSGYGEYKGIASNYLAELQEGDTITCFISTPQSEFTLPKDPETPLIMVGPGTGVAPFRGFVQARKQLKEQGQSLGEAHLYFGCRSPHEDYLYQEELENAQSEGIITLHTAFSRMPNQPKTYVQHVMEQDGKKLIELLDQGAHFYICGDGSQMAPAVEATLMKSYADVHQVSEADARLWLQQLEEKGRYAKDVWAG
T1 sequence (P14779 2-1049 R48L/F82I/F88V/E144G/L189Q/E268V): as the sequence (P14779 2-1049 R48L/E65G/F82I/F88V/E144G/L189Q/E268V) above, with G64E counted along it
Chain of triple CYP102A1 mutant of R47L/F87V/L188Q (P14779 2-1049 R48L/F88V/L189Q): as the sequence (P14779 2-1049 R48L/E65G/F82I/F88V/E144G/L189Q/E268V) above, with G64E, I81F, G143E, V267E counted along it

Molecule | Inhibition of 6′β-hydroxylation activity of lovastatin (CYP102A1 mutant #16; 100 μM lovastatin) [%] | Inhibition of 6′β-hydroxylation activity of simvastatin (CYP102A1 mutant #16; 100 μM simvastatin) [%] | Inhibition of 6′β-hydroxylation activity of lovastatin (CYP102A1 mutant #17; 100 μM lovastatin) [%] | Inhibition of 6′β-hydroxylation activity of simvastatin (CYP102A1 mutant #17; 100 μM simvastatin) [%] | Effect on metabolism of acetaminophen and 3,4-methylenedioxymethylamphetamine [1] | Simvastatin 6β′-OH product formation rate [2] | Simvastatin 6′-Exomethylene product formation rate [2] | Lovastatin 6β′-OH product formation rate [3] | Lovastatin 6′-Exomethylene product formation rate [3] | Total turnover number of 6′β-OH product formation, simvastatin [4] [nmol product/nmol P450] | Total turnover number of 6′β-OH product formation, lovastatin [5] [nmol product/nmol P450] | Km [6] [µM] | kcat, 6′β-hydroxylation of simvastatin [6] | Km [7] [µM] | kcat, 6′β-hydroxylation of lovastatin [7] | Total turnover number of 6′β-OH product formation, simvastatin ([4]; listed as wild-type CYP102A1) [nmol product/nmol P450] | Total turnover number of 6′β-OH product formation, lovastatin ([5]; listed as wild-type CYP102A1) [nmol product/nmol P450]
O=c1cc(-c2ccccc2)oc2c1ccc1ccccc12 [αNF, 7,8-benzoflavone] | 48 | 44 | 76 | 77 | did not have a significant effect |  |  |  |  |  |  |  |  |  |  |  | 
Human CYP3A4: human cytochrome P450 3A4, reconstituted with NADPH-P450 reductase, cytochrome b5 and DLPC |  |  |  |  |  | 3.0 ± 0.1 nmol product/min/nmol P450 | 0.22 ± 0.01 nmol product/min/nmol P450 | 6.5 ± 0.3 nmol product/min/nmol P450 | 0.43 ± 0.01 nmol product/min/nmol P450 | 35 ± 5 | 44 ± 6 | 130 | 0.11 s⁻¹ and 0.11 ± 0.015 s⁻¹ | 54 ± 15 | 0.07 s⁻¹ and 0.07 ± 0.0083 s⁻¹ |  | 
B1 |  |  |  |  |  | 0.0049 ± 0.0017 nmol product/min/nmol P450 | N.D. (not detectable(the rate of product formation was less than 0.001 nmol product/min/nmol P450)) | N.D. (not detectable(the rate of product formation was less than 0.001 nmol product/min/nmol P450)) | N.D. (not detectable(the rate of product formation was less than 0.001 nmol product/min/nmol P450)) | 0.77 ± 0.04 | 1.9 ± 0.6 |  |  |  |  | 0.77 | 1.9
